From patent US20200317768A1 (published 2020)

T1: human FcγRIIaH extracellular domain, C-terminal His-tag (human, UniProt P12318 34-217)
T1 construct: also called human FcγRIIa (type H); FcgRIIaH
T1 sequence: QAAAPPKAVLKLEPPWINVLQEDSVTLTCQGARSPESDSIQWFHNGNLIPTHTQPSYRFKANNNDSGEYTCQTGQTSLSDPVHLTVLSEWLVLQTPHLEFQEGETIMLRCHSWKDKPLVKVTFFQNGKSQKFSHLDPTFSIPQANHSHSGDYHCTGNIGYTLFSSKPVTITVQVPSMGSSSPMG

T2: cynomolgus monkey FcγRIIIaS extracellular domain, C-terminal His-tag (cynomolgus monkey, UniProt Q8SPW2 21-206 at identity 1.00))
T2 construct: also called cyno FcγRIIIaS; FcgRIIIaS
T2 chain: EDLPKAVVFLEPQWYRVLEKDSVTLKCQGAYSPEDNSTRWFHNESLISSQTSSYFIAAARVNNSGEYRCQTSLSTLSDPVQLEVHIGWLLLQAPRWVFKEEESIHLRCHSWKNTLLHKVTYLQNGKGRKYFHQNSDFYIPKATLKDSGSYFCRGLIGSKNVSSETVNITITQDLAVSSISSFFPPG

B1: MS_M103205H795-SG1/M103202L889-SK1 (antibody, human IgG1, kappa)
heavy: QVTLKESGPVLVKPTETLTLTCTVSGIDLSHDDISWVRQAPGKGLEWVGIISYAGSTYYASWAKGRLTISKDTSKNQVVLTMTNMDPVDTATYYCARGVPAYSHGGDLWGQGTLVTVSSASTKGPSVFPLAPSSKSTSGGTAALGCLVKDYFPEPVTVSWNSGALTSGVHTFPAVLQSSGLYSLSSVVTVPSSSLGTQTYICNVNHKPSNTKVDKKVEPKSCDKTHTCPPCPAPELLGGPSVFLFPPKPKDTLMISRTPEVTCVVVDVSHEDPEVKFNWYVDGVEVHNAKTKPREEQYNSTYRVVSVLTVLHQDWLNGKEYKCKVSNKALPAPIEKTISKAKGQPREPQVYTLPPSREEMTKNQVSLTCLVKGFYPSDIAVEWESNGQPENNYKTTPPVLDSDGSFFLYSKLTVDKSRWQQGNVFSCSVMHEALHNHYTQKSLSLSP
light: DIVMTQSPATLSLSPGERATLSCTSSQSVYHANWLSWFQQKPGQPPKLLIYWASTLAYGVPSRFSGSGSGTDFTLTISSLQPEDAATYYCAGGYGGGRYAFGQGTKVEIKRTVAAPSVFIFPPSDEQLKSGTASVVCLLNNFYPREAKVQWKVDNALQSGNSQESVTEQDSKDSTYSLSSTLTLSKADYEKHKVYACEVTHQGLSSPVTKSFNRGEC
notes: also called MS1032LO06-SG1
B2: M103205H795-MY009/M103202L889-SK1 (antibody, human IgG1, kappa)
heavy: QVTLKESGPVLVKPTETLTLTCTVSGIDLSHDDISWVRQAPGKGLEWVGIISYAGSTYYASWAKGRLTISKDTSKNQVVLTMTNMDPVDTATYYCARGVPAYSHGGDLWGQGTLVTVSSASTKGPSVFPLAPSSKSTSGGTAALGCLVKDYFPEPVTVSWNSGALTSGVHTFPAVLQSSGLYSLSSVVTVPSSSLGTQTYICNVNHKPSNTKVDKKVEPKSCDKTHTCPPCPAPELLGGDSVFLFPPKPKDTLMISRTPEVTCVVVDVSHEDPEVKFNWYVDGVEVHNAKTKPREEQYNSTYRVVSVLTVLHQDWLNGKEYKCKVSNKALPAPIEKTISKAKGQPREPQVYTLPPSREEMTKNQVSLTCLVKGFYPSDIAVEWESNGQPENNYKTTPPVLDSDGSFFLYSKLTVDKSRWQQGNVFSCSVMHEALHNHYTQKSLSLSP
light: B1 light
notes: CH MY009 = SG1 with P238D (EU numbering); also called MS1032LO06-MY009

Tests used:
[1] = biological target: T1, human FcγRIIaH extracellular domain, …; assay: SPR (BIACORE) 25C, antibody captured, FcgR as analyte
[2] = biological target: T1, human FcγRIIaH extracellular domain, …; assay: SPR (BIACORE) 25C, antibody captured, FcgR as analyte; weak binding, KD by Equation 2
Description: (§1) The kinetic analysis of interactions between these antibodies and FcγR was carried out using BIACORE® T200 or BIACORE® 4000 (GE Healthcare). HBS-EP+ (GE Healthcare) was used as the running buffer, and the measurement temperature was set to 25° C. A chip produced by immobilizing Protein A. Protein A/G or mouse anti-human IgG kappa light chain (BD Biosciences) onto a Series S Sensor Chip CM4 or CM5 (GE Healthcare) by the amine-coupling method was used. […] After the measurement, the antibody captured on the chip was washed off by allowing reaction with 10 mM glycine-HCl, pH1.5 and 25 mM NaOH so that the chip was regenerated and used repeatedly. The sensorgrams obtained as measurement results were analyzed by the 1:1 Langmuir binding model using the BIACORE® Evaluation Software to calculate the binding rate constant ka (L/mol/s) and dissociation rate constant kd (l/s), and the dissociation constant KD (mol/L) was calculated from these values. […] Regarding such interactions, KD values were calculated using the following 1:1 binding model described in BIACORE® T100 Software Handbook BR1006-48 Edition AE.
(§2) The behavior of interacting molecules according to the 1:1 binding model on BIACORE® can be described by Equation 1: Req=C·R max/(KD+C)+RI, wherein, Req is a plot of steady-state binding levels to analyte concentration. […]

[3] = biological target: T2, cynomolgus monkey FcγRIIIaS …; assay: as above
Description: as §1, §2

Row | Binder | Kd [1] [µM] | Kd [2] [µM] | Kd [3] [µM]
1 | B1 | 0.93 |  | 
2 | B2 |  | 75 | 100
